Source: patent publication US20210403565A1 (BIOATLA, published 2021)

T1: human CTLA4 expressed on the cell surface of CHO cells (human, UniProt P16410 36-223)
T1 construct: whole, on cells; also called CHO-huCTLA4; huCTLA4
T1 sequence (looked up): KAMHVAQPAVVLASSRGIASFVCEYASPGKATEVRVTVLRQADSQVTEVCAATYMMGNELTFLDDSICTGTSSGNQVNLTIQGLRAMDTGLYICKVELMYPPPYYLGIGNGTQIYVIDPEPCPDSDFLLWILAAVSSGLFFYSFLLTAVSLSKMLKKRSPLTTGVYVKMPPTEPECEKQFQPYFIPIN

T2: recombinant human CTLA4 extracellular domain (human, UniProt P16410 36-161)
T2 construct: extracellular domain; also called huCTLA-4
T2 sequence (looked up): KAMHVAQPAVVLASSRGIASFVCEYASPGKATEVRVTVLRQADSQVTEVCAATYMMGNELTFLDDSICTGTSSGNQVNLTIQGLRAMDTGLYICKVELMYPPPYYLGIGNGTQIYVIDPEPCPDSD


Assays:
[1] = molecular target: T1, human CTLA4 expressed on the cell …; test: FACS, cells expressing human CTLA4, assay pH 6.0, MFI; lot 6978 in His buffer, T0; unit from the axis Log[ng/mL]
Method: (§1) The amount of bound antibodies was quantified using anti-human IgG antibody conjugated to fluorophores. The MFI in each reaction was proportional to the amount of antibodies bound. The EC₅₀ value (in ng/mL) for binding to human CTLA4 on cells was determined by MFI of the singlets population against antibody concentration with a Prism variable slope of four-parameter dose-response curve, which was calculated using the nonlinear fit (variable slope, four parameters) model built into GraphPad Prism software (version 7.03).

[2] = molecular target: T2, recombinant human CTLA4 extracellular …; test: ELISA, wells coated with human CTLA4, assay pH 7.4; lot 6978 in Tris buffer, T2W; curve still rising at log 3 (OD450 at most about 0.3), no plateau; unit from the axis Log[ng/mL]
Method: (§2) Both ELISA and FACS analysis were used to measure the binding activity. […] The amount of bound antibodies was quantified using anti-human IgG antibody conjugated to HRP. The absorbance at 450 nm in each measurement was proportional to the amount of antibodies bound. […] EC50 value (in ng/mL) for binding to human CTLA4 was determined by absorbance at 450 nm against antibody concentration with Prism variable slope of four-parameter dose-response curve, which was calculated using the nonlinear fit (variable slope, four parameters) model built into GraphPad Prism software (version 7.03). The buffers tested included His buffer (His), Tris buffer (Tris), Glutamine buffer (Glu) and no buffer.

[3] = molecular target: T2, recombinant human CTLA4 extracellular …; test: ELISA, wells coated with human CTLA4, assay pH 7.4; lot 6978 in His buffer, T2W; curve still rising at log 3 (OD450 below 0.2), no plateau; unit from the axis Log[ng/mL]
Method: as §2

[4] = molecular target: T1, human CTLA4 expressed on the cell …; test: FACS, cells expressing human CTLA4, assay pH 6.0, MFI; lot 6978 in His buffer, T2W; unit from the axis Log[ng/mL]
Method: as §1

[5] = molecular target: T2, recombinant human CTLA4 extracellular …; test: ELISA, wells coated with human CTLA4, assay pH 6.0; lot 6978 in Tris buffer, T0; unit from the axis Log[ng/mL]
Method: as §2

[6] = molecular target: T1, human CTLA4 expressed on the cell …; test: FACS, cells expressing human CTLA4, assay pH 7.4, MFI; lot 6972 control without test buffer; same column repeated in FIG. 10B and FIG. 10C; unit from the axis Log[ng/mL]
Method: as §1

[7] = molecular target: T1, human CTLA4 expressed on the cell …; test: FACS, cells expressing human CTLA4, assay pH 7.4, MFI; lot 6972 in His buffer, T0; unit from the axis Log[ng/mL]
Method: as §1

[8] = molecular target: T2, recombinant human CTLA4 extracellular …; test: ELISA, wells coated with human CTLA4, assay pH 7.4; lot 6972 without test buffer; same column repeated in FIG. 9B and FIG. 9C; unit from the axis Log[ng/mL]
Method: as §2

[9] = molecular target: T2, recombinant human CTLA4 extracellular …; test: ELISA, wells coated with human CTLA4, assay pH 7.4; lot 6972 in Glu buffer, T2W; unit from the axis Log[ng/mL]
Method: as §2

[10] = molecular target: T2, recombinant human CTLA4 extracellular …; test: ELISA, wells coated with human CTLA4, assay pH 6.0; lot 6972 in Tris buffer, T0; unit from the axis Log[ng/mL]
Method: as §2

[11] = molecular target: T2, recombinant human CTLA4 extracellular …; test: ELISA, wells coated with human CTLA4, assay pH 7.4; lot 6972 in Glu buffer, T0; unit from the axis Log[ng/mL]
Method: as §2

[12] = molecular target: T1, human CTLA4 expressed on the cell …; test: FACS, CHO cells expressing human CTLA4 (CHO-huCTLA-4), pH 7.4, MFI; no unit in the table, unit from the axis Log Antibodies [ng/ml]
Method: The amount of antibodies bound on the cells was quantified using anti-human IgG antibody conjugated to fluorophores. EC₅₀ values at pH 6.0 and 7.4 for binding to cells were calculated using the nonlinear fit (variable slope, four parameters) model built into GraphPad Prism software (version 7.03). The expression levels of human CTLA4 or cynomolgus CTLA4 on the surface of the CHO cells were determined using a BD QuantiBRITE™ PE kit.
At least two independent duplicate FACS experiments were performed for each antibody using each of the cell lines. The binding activities at different concentrations of the antibodies are plotted in these figures.

[13] = molecular target: T2, recombinant human CTLA4 extracellular …; test: ELISA, wells coated with human CTLA4, assay pH 6.0; lot 6972 in His buffer, T0; unit from the axis Log[ng/mL]
Method: as §2

Row | EC50 [1] | EC50 [2] | EC50 [3] | EC50 [4] | EC50 [5] | EC50 [6] | EC50 [7] | EC50 [8] | EC50 [9] | EC50 [10] | EC50 [11] | EC50 [12] | EC50 [13] | Binder
1 | 0.159 mg/L | 1.49 mg/L | 1.07 mg/L | 0.145 mg/L | 0.0171 mg/L |  |  |  |  |  |  |  |  | BA-087-08-32 (antibody, V domains shown, Detected with anti-human IgG and a molecular weight of 146 kDa was used in SPR, so it was tested as a whole IgG; also called BA-087-08-032; BA-087-08-32 (# 6978)) VH: EVQLVQSGAEVKKPGATVKISCKVSGFTFSHYTMHWIRQSPSRGLEWLGFISYDGNYKYYADSVKGRFTISRDNAKNSLYLQMNSLRAEDTAVYYCARTGWLGPFDYWGQGTLVTVSS VL: EIVMTQSPATLSVSPGERATLSCRASQSVGSSYLAWYQQKPGKAPKLLIYGAFSRATGVPSRFSGSGSGTDFTLTISSLQPEDFATYYCQQDGSSPWTFGQGTKVEIK
2 |  |  |  |  |  | 0.428 mg/L | 0.433 mg/L | 0.0546 mg/L | 0.022 mg/L | 0.00591 mg/L | 0.11 mg/L | 0.438 mg/L | 0.0154 mg/L | BA-087-05-19 (antibody, V domains shown, Detected with anti-human IgG and a molecular weight of 146 kDa was used in SPR, so it was tested as a whole IgG; also called BA-087-05-019; BA-087-05-19 (# 6972)) VH: EVQLVESGGGLVQPGGSLRLSCAASGFTFSHYTMHWVRQAPGKGLEWVSFISYDGNNKYYADSVKGRFTISRDNSKNTLYLQMNSLRAEDTAVYYCARTGWLGPFDYWGQGTLVTVSS VL: AIQLTQSPSSLSASVGDRVTITCRASQYVGSSYLAWYLQKPGQSPQLLIYGAFSRATGIPARFSGSGSGTEFTLTISSLQSEDFAVYYCQQDGSSPWTFGQGTKVEIK
